Measurements published in patent publication US20090149339A1 (published 2009).
Ends that are not written are not given here. * marks the point of attachment. Biotin = O=C1N[C@H]2[C@H](CS[C@H]2CCCCC(=O)*)N1

Key:
[1] = biological target: T1, GST-PSD95 PDZ domain fusion protein (human post-synaptic density protein 95 AA387-724; PDZ domains 1-3 of 3) (human, UniProt P08515 1-218 = GST); experiment: G assay
[2] = biological target: T2, GST-NeDLG PDZ domain fusion protein (presynaptic protein sao102, neuroendocrine-dlg; PDZ domains 1-2 of 3) (UniProt P08515 1-218 = GST); experiment: G assay
T2 construct: also called NeDLG1

[3] = biological target: T3, GST-DVL1 PDZ domain fusion protein (human dishevelled segment polarity protein homolog AA248-340); PDZ domain … (human, UniProt P08515 1-218 = GST); experiment: A/G assays
[4] = biological target: T4, GST-RGS12 PDZ domain fusion protein (human regulator of G-protein signalling 12 AA35-103; PDZ domain 1 of 1) (human, UniProt P08515 1-218 = GST); experiment: A/G assays
T4 construct: also called RSG12

[5] = biological target: T5, GST-CBP PDZ domain fusion protein (Cytohesin binding protein HE AA85-175; PDZ domain 1 of 1) (UniProt P08515 1-218 = GST); experiment: A/G assays
T5 construct: also called Prot

[6] = biological target: GST-LIM PDZ domain fusion protein (Human LIM protein AA29-112; PDZ domain 1 of 1) (human, UniProt P08515 1-218 = GST); experiment: A/G assays
[7] = biological target: T6, GST-SYN1a PDZ domain fusion protein (alpha1-syntrophin AA96-189; PDZ domain 1 of 1) (UniProt P08515 1-218 = GST); experiment: A/G assays
T6 construct: also called SYN 1 alpha; SYNTR 1 alpha

[8] = biological target: T7, GST-TAX40 PDZ domain fusion protein (human tax interaction protein 40 AA35-137; PDZ domain 1 of 1) (human, UniProt P08515 1-218 = GST); experiment: A/G assays
T7 construct: also called TX 40

[9] = biological target: GST-MINT3 PDZ domain fusion protein (human MINT3 AA11-52; PDZ domain 1 of 1) (human, UniProt P08515 1-218 = GST); experiment: A/G assays
[10] = biological target: T8, GST-CASK PDZ domain fusion protein (CASK AA495-584; PDZ domain 1 of 1) (mouse, UniProt P08515 1-218 = GST); experiment: A/G assays
T8 construct: also called mCASK

[11] = biological target: GST-LIMK2 PDZ domain fusion protein (human LIM domain kinase 2 AA185-275; PDZ domain 1 of 1) (human, UniProt P08515 1-218 = GST); experiment: A/G assays
[12] = biological target: T9, GST-KIAA0316 PDZ domain fusion protein (KIAA0316 AA197-284; PDZ domain 1 of 1) (UniProt P08515 1-218 = GST); experiment: A/G assays
T9 construct: also called K316

[13] = biological target: T10, GST-KIAA0303 PDZ domain fusion protein (KIAA0303 AA652-742; PDZ domain 1 of 1) (UniProt P08515 1-218 = GST); experiment: A/G assays
T10 construct: also called K303

[14] = biological target: GST-TIAM1 PDZ domain fusion protein (T-lymphoma invasion and metastasis inducing protein 1 AA1001-1088); PDZ 1 … (UniProt P08515 1-218 = GST); experiment: A/G assays
[15] = biological target: T11, GST-TAX33 PDZ domain fusion protein (tax interaction protein 33 AA73-162; PDZ domain 1 of 1) (UniProt P08515 1-218 = GST); experiment: A/G assays
T11 construct: also called TX33

[16] = biological target: T12, GST-TAX2 PDZ domain fusion protein (human tax interaction protein 2 AA54-140; PDZ domain 1 of 1) (human, UniProt P08515 1-218 = GST); experiment: A/G assays
T12 construct: also called TX 2

[17] = biological target: T13, GST-PTN-4 PDZ domain fusion protein (protein-tyrosine phosphatase meg1 AA774-862; PDZ domain 1 of 1) (UniProt P08515 1-218 = GST); experiment: A/G assays
[18] = biological target: T14, GST-TAX43 PDZ domain fusion protein (human tax interaction protein 43 AA15-85; PDZ domain 1 of 1) (human, UniProt P08515 1-218 = GST); experiment: A/G assays
T14 construct: also called TX 43

[19] = biological target: GST-prIL16 PDZ domain fusion protein (putative interleukin 16 precursor AA170-383; PDZ domains 1-2 of 2) (UniProt P08515 1-218 = GST); experiment: A/G assays
[20] = biological target: T15, GST-KIAA0559 PDZ domain fusion protein (KIAA0559 AA766-870; PDZ1 of 1) (UniProt P08515 1-218 = GST); experiment: A/G assays
T15 construct: also called K559

[21] = biological target: GST-NOS1 PDZ domain fusion protein (human neuronal nitric oxide synthase; PDZ domain 1 of 1) (human, UniProt P08515 1-218 = GST); experiment: A/G assays
[22] = biological target: T16, GST-41.8 kD PDZ domain fusion protein (hypothetical 41.8 kD protein AA4-85; PDZ domain 1 of 1) (UniProt P08515 1-218 = GST); experiment: A assay
T16 construct: also called hypoth

[23] = biological target: T17, GST-MPP2 PDZ domain fusion protein (maguk p55 subfamily member 2 (DLG2) AA185-273; PDZ domain 1 of 1) (UniProt P08515 1-218 = GST); experiment: A assay
T17 construct: also called MMP2

[24] = biological target: T18, GST-AF6 PDZ domain fusion protein (af-6 protein AA985-1077; PDZ domain 1 of 1) (UniProt P08515 1-218 = GST); experiment: A assay
[25] = biological target: T19, GST-MPP1 PDZ domain fusion protein (55 Kd erythrocyte membrane protein AA101-186; PDZ domain 1 of 1) (UniProt P08515 1-218 = GST); experiment: A/G assays
[26] = biological target: T1, GST-PSD95 PDZ domain fusion protein …; experiment: A and G assays
[27] = biological target: T4, GST-RGS12 PDZ domain fusion protein …; experiment: A and G assays
[28] = biological target: T16, GST-41.8 kD PDZ domain fusion protein …; experiment: A and G assays
[29] = biological target: T13, GST-PTN-4 PDZ domain fusion protein …; experiment: A and G assays
[30] = biological target: T2, GST-NeDLG PDZ domain fusion protein …; experiment: A and G assays
[31] = biological target: T6, GST-SYN1a PDZ domain fusion protein …; experiment: G assay
[32] = biological target: T17, GST-MPP2 PDZ domain fusion protein …; experiment: G assay
[33] = biological target: T18, GST-AF6 PDZ domain fusion protein (af-6 …); experiment: A/G assays
[34] = biological target: T3, GST-DVL1 PDZ domain fusion protein …; experiment: A assay
[35] = biological target: T19, GST-MPP1 PDZ domain fusion protein (55 …); experiment: A assay
[36] = biological target: T12, GST-TAX2 PDZ domain fusion protein …; experiment: A assay
[37] = biological target: T14, GST-TAX43 PDZ domain fusion protein …; experiment: A assay

T9 sequence (P08515 1-218, tags or fused parts left off): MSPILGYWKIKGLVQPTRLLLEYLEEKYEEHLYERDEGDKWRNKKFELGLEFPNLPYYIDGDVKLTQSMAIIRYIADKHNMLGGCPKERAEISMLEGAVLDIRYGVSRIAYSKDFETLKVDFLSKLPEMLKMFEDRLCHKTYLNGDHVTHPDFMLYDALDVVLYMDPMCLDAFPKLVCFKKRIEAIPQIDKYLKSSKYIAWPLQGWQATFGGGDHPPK
T10 sequence (P08515 1-218, tags or fused parts left off): as above
Sequence of GST-NOS1 PDZ domain fusion protein (human neuronal nitric oxide synthase; PDZ domain 1 of 1) (P08515 1-218, tags or fused parts left off): as above
T18 sequence (P08515 1-218, tags or fused parts left off): as above
T19 sequence (P08515 1-218, tags or fused parts left off): as above
T17 sequence (P08515 1-218, tags or fused parts left off): as above
T1 sequence (P08515 1-218, tags or fused parts left off): as above
T11 sequence (P08515 1-218, tags or fused parts left off): as above
Sequence of GST-MINT3 PDZ domain fusion protein (human MINT3 AA11-52; PDZ domain 1 of 1) (P08515 1-218, tags or fused parts left off): as above
T8 sequence (P08515 1-218, tags or fused parts left off): as above
T2 sequence (P08515 1-218, tags or fused parts left off): as above
T15 sequence (P08515 1-218, tags or fused parts left off): as above
Sequence of GST-LIM PDZ domain fusion protein (Human LIM protein AA29-112; PDZ domain 1 of 1) (P08515 1-218, tags or fused parts left off): as above
T6 sequence (P08515 1-218, tags or fused parts left off): as above
T12 sequence (P08515 1-218, tags or fused parts left off): as above
T14 sequence (P08515 1-218, tags or fused parts left off): as above
T7 sequence (P08515 1-218, tags or fused parts left off): as above
Sequence of GST-prIL16 PDZ domain fusion protein (putative interleukin 16 precursor AA170-383; PDZ domains 1-2 of 2) (P08515 1-218, tags or fused parts left off): as above
Sequence of GST-TIAM1 PDZ domain fusion protein (T-lymphoma invasion and metastasis inducing protein 1 AA1001-1088); PDZ 1 … (P08515 1-218, tags or fused parts left off): as above
T3 sequence (P08515 1-218, tags or fused parts left off): as above
T13 sequence (P08515 1-218, tags or fused parts left off): as above

| Binder | binding result [5] | binding result [6] | binding result [8] | binding result [9] | binding result [10] | binding result [11] | binding result [12] | binding result [13] | binding result [14] | binding result [15] | binding result [19] | binding result [20] | binding result [21] | further results |
| --- | --- | --- | --- | --- | --- | --- | --- | --- | --- | --- | --- | --- | --- | --- |
| Biotin-QGDPALQDAGDSSRKEYFI (also called GC) [Glycophorin C C-terminal PL peptide AA37L, biotinylated] | no binding | no binding | no binding | no binding | no binding | no binding | no binding | no binding | no binding | no binding | no binding | no binding | no binding | binding result [1]: binds; binding result [2]: binds; binding result [3]: no binding; binding result [4]: no binding; binding result [7]: no binding; binding result [16]: no binding; binding result [17]: no binding; binding result [18]: no binding; binding result [22]: binds; binding result [23]: binds; binding result [24]: binds; binding result [25]: no binding |
| Biotin-LNSCSNRRVYKKMPSIESDV [NMDA C-terminal PL peptide AA34.2L, biotinylated] | no binding | no binding | no binding | no binding | no binding | no binding | no binding | no binding | no binding | no binding | no binding | no binding | no binding | binding result [26]: binds; binding result [27]: binds; binding result [28]: binds; binding result [29]: binds; binding result [30]: binds; binding result [31]: binds; binding result [32]: binds; binding result [33]: no binding; binding result [34]: binds; binding result [35]: binds; binding result [36]: binds; binding result [37]: binds |
